From the supplement of paper PMC12042874
± gives the uncertainty stated by the source.

Experiment: amyloid nucleation score (Sup35N fusion, yeast selection) (log enrichment); library NNK1; higher = more nucleation; inactive = no reads after selection
Outline: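 Using DiMSum, nucleation scores were taken as the log enrichment of output over input reads, centred on the mode score of non-aggregating sequences. The input and output reads came from Illumina sequencing of plasmid inserts, with sequences under 100 input reads excluded. The yeast were psi-negative, expressed Sup35N fused to peptides of 20 random codons, were induced with 100 μM copper sulfate for 24 hours, and were grown 7 days at 30°C on medium lacking adenine and uracil.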

| Substance | amyloid nucleation score |
| --- | --- |
| QVDHKIWKGTVYDLSMGMM | -0.35 ± 0.46 |
| FKEDITFADGISDWSCQYTM | inactive |
| LTAYLRGTDSGPERSWRCAS | -0.209 ± 0.88 |
| MFNRWDIHFIGNNNLYGICV | 0.613 ± 0.26 |
| MVWSQVQLRIGVMVM | -0.562 ± 0.4 |
| RNGLALRLTNTTRSTYLSRQ | -0.166 ± 1.1 |
| WYIVPITVNFQG | 6.54 ± 0.049 |
| EELTAYMSLDMQLCRNRAAM | 0.055 ± 0.55 |
| MFYVPIGPLSRCWRTALGFI | -0.786 ± 0.85 |
| LIELRIWLLHLPMYGVLESI | -0.758 ± 0.39 |
| LLKVQGF | 1.13 ± 0.51 |
| LFSWVCIFECLPFKNWSQTV | inactive |
| RLVLNCRYNYCSREFVFYAV | 0.292 ± 0.35 |
| TFTWGRMRSSSVDSCVKSWA | 1.2 ± 0.37 |
| CRNLFMWDIRRGKYITARKK | -0.779 ± 1.6 |
| QCWEWIR | -0.564 ± 0.84 |
| VCQLVILGFFLRIVTMCWLW | inactive |
| FSVLVPMYK | -0.361 ± 0.6 |
| AVWLVQSHPN | 0.499 ± 0.58 |
| LCVEVS | 0.369 ± 0.42 |
| SVNLNFLFAL | 8.056 ± 0.056 |
| TFRQVPAQFNMASRDKNSTI | inactive |
| YAYFVSWGVFVIENVFPYKY | -1.27 ± 0.66 |
| WNMLPSIPGDRGWLDGVPVV | -0.45 ± 0.39 |
| YFKSWTLNMCVGIKNK | 4.66 ± 0.056 |

| Substance | amyloid nucleation score |
| --- | --- |
| CYKPPLWMMYLLLRRDVYRD | inactive |
| VIITLSRCSRDHTDVMGTFV | -0.81 ± 1.4 |
| QGSYLHLSIKWLAFRSMS | 0.19 ± 0.4 |
| IYTDSVGLFCSYADMPSDRV | 0.372 ± 1.4 |
| CRRRMFLQVPRIYFEMRSYA | 0.492 ± 0.91 |
| RAFNRIINHRTEGNNPYYFL | inactive |
| IASDRFF | 0.77 ± 0.97 |
| VVPPRTDSE | -0.364 ± 0.46 |
| IKLNTEALESYLLVFRMKRW | -0.605 ± 0.46 |
| IWDCLFPSSSAMSYPVDPKA | 0.547 ± 0.42 |
| YIHLMRYARNLLPFRYCV | -0.641 ± 0.5 |
| GYSGLLYVSRVVSYLIHFWV | 0.702 ± 0.47 |
| DLFYINIVMKSFVHWVNHLH | 0.416 ± 0.28 |
| TDGTLIGSY | 0.128 ± 0.44 |
| YDSSLMGVWMCGCIARWEVS | -1.93 ± 2.7 |
| DFVMLEV | -0.594 ± 0.68 |
| SEIPKSYPNFDYVSFINNSL | -0.24 ± 0.39 |
| SFCSFEF | 0.858 ± 0.88 |
| IAIFKYVKRDSSGKNCLSRS | -0.242 ± 0.25 |
| STFMSILTSESTMRNGITNR | inactive |
| NYREGVVIILNNPDYCRRER | 6.36 ± 0.091 |
| LFGTS | 0.501 ± 0.51 |
| PTAEV | 0.545 ± 0.76 |
| VTACYYSISFCVRGAMYGYV | 1.38 ± 0.33 |
| NMAMYSIWGGWWMVLFCVLL | inactive |

| Substance | amyloid nucleation score |
| --- | --- |
| FFKNLCSRGCLCSYGMVQTV | 0.396 ± 0.58 |
| FIRGLCNVLGCSR | 1.04 ± 0.24 |
| GIMTHVGRPKVTGCGRGKCT | -0.165 ± 1.6 |
| KVISFYS | 3.21 ± 0.083 |
| MLIFHTCA | 0.483 ± 1.1 |
| NLDVYFLVRWLLSCRCACRS | 0.87 ± 0.62 |
| DNAYDRVGTQGSAWFCGDCL | -0.655 ± 0.64 |
| IVVGRGKQAIASMG | -0.432 ± 0.89 |
| GVCALAHRAPIWDQFVGMLV | 0.109 ± 0.28 |
| LQKRANNRRC | -0.372 ± 0.5 |
| QVHPPMTTGPC | 0.291 ± 0.53 |
| NPWIT | 1.65 ± 0.35 |
| WLIVIGMGRLGIVIMLGGLK | 0.723 ± 0.44 |
| DIGHFHGTDMGCNIF | inactive |
| NDGVNPYNMACKMLSCYNSA | 1.14 ± 0.97 |
| RHTETSLASSARKPALNPT | 0.197 ± 0.41 |
| HDPDPVDYGCGWVSVSCGVA | 0.819 ± 0.82 |
| LVNDPVFMGTWILSARICNV | 0.323 ± 0.36 |
| LVMTYVFLDCI | -0.634 ± 1.1 |
| VLCSCAMGYMFFFRAMMFR | -0.038 ± 0.38 |
| FRRMVTVNEAWHHRKAGSAN | 1.47 ± 0.65 |
| DMRYSRSCYTGCTDYYTCLG | -0.546 ± 0.4 |
| IMKRCCGESMMPDAGWSGSA | -0.401 ± 1 |
| YSVFALRINLFAYTIPNSVL | -0.34 ± 0.24 |
| MQVHARFYSFREEDIAGRAR | -0.443 ± 0.52 |

| Substance | amyloid nucleation score |
| --- | --- |
| RQAFIRGGLEAAKGAYHVLG | -1.38 ± 2.4 |
| GTDYIKVSASPRSFMYDSSV | 1.88 ± 0.62 |
| CRCAPYSNGKTGIHARLFNT | 0.794 ± 1.1 |
| YRYHVSCTYAVSLGAAKSNA | -0.078 ± 0.72 |
| IHLNQ | 1.15 ± 0.55 |
| MYLVVTVRFNWLPRDQFTVL | 0.848 ± 0.37 |
| ISQYILSHLCQFIVSIGLAT | -0.454 ± 0.88 |
| GQEVHISIVNVLQFEYNRYD | 6.074 ± 0.05 |
| SMQSSVDYKRGAMTFI | 0.424 ± 0.69 |
| KSRFSDGGSSWFCGTFMFYT | -0.723 ± 0.42 |
| IGIGWATSLCLDRDLFVTSG | 0.029 ± 1.2 |
| RRLHMLVNHLKCAGATRGGR | -0.172 ± 0.34 |
| FWSHHPHTNENMCTYTNLSW | inactive |
| ARGPLKSGINQNVCSCGTSI | 0.118 ± 1.5 |
| FKVIYARFVTIWVAVRRAFL | 0.051 ± 0.69 |
| SIWVIRPAAGKSEGSISNVQ | 0.531 ± 0.5 |
| SACNLPACRSNKLAGRGRVM | 0.408 ± 0.42 |
| YRITERIFFDQKASHVWLIT | -0.165 ± 0.41 |
| RHSLIFDRTGRGYGARVPVE | inactive |
| FCSSSLFHKVTLG | -0.043 ± 0.77 |
| QWCVKESAFIYEYRLSGDCR | 0.877 ± 0.32 |
| AWKGWFLMGYCGDRVMWDWR | -0.131 ± 0.73 |
| NDRTGCVVGLHCEMNI | 5.961 ± 0.045 |
| LRCSLDGFFGLDWLANLILD | -0.115 ± 0.23 |
| YWHDVI | 0.104 ± 1 |

| Substance | amyloid nucleation score |
| --- | --- |
| GTVVG | 0.041 ± 0.54 |
| DNYGCYCL | 0.802 ± 0.72 |
| SILGRWDHDLWNLFGARSLV | -0.148 ± 0.89 |
| LRYLQQWYST | 2.67 ± 0.19 |
| IPKVIGWFTVVTTGVVVDIS | 1.27 ± 0.7 |
| DARLC | -0.226 ± 1 |
| HYVFRHAWDSSFDVNVGLAQ | 0.564 ± 0.9 |
| FFILW | -0.75 ± 1.2 |
| FTSSIMEFNESQWVNFTFIW | 4.42 ± 0.053 |
| AWLSGVNVVSKSQGCFLWYG | 0.551 ± 0.56 |
| RTFTGRDGCVKDVCTPHFEM | 0.632 ± 0.9 |
| IIWRDNNTPYD | 1.96 ± 0.7 |
| DYMDSCGYVDSATRYKVSEM | -0.241 ± 1.1 |
| FFISALLNSSFGEFTFGSVK | -0.432 ± 0.65 |
| KPGFYT | -0.705 ± 0.92 |
| MYEMTG | -0.388 ± 0.19 |
| CWPRWNSVSLGSLSILLCFF | 3.77 ± 0.11 |
| RRENIP | 0.01 ± 0.42 |
| YAMNPHTDGPCTFNWVFYGK | 8.094 ± 0.056 |
| VLYLMAAPIVMVYV | 4.31 ± 0.061 |
| SMQQVSTSVQKVMDAYHWGW | 0.554 ± 0.79 |
| EIDNLHWVLVVNYPTSQFKR | -0.02 ± 0.39 |
| MADFFIHCFLSSYCEWFIWR | -0.283 ± 0.46 |
| CNWATLTMWLLSCIRPTPRS | -1.1 ± 2.4 |
| CEEKCSHNVGTY | 0.458 ± 0.55 |

| Substance | amyloid nucleation score |
| --- | --- |
| VCELHLILM | 0.425 ± 0.3 |
| FVSLNTIFRAYPQIHYRLVR | inactive |
| LKNSRYSKLFIESMTWWLVY | 0.087 ± 0.16 |
| MQTLNCSPNQAHSSIFN | 0.915 ± 0.97 |
| CVKLGYYWSF | 0.598 ± 0.16 |
| HWNHYWQ | -0.07 ± 0.46 |
| CPTEGGLVWSYWSLS | 1.09 ± 0.83 |
| VIFDNGRLIEHCYERLTRPW | -0.327 ± 0.61 |
| SADLCLMWSGTNC | inactive |
| KAFNVFER | 0.225 ± 0.53 |
| AFTGQCEEKIS | -0.226 ± 0.42 |
| KNCPALRSFSSKDSSSFVWS | -0.23 ± 0.43 |
| RLVTYPSVLSSVSEGSGRGG | 1.05 ± 0.66 |
| STRDQSDVMDRLTGEHHQQW | 0.363 ± 0.41 |
| WFSVMLRYEY | 1.71 ± 0.2 |
| NSRAGLYVISSSYCRSMLDR | 1.48 ± 0.39 |
| HKTSKMLCLSI | 0.241 ± 0.9 |
| SWTGMNSHSLKKHLGI | -0.447 ± 0.93 |
| YLIKCTTIAGRTGYSVTMRD | -0.341 ± 1 |
| ILDMMAKV | 1.56 ± 0.76 |
| AKDFIGQSC | 0.688 ± 0.45 |
| LLWTGY | 2.43 ± 0.099 |
| SLTDAEGSWLHRSWVKWNRC | -0.208 ± 0.62 |
| PTKSIMLFCLGLFCGYLARA | 2.91 ± 0.093 |
| FGQSQPCDVTRENFCKEACN | -0.028 ± 0.9 |

| Substance | amyloid nucleation score |
| --- | --- |
| DERNACLSSFGVNLRLIKLS | -0.002 ± 0.4 |
| YDVVRSGFLGVDNITRLMPR | -0.27 ± 1.2 |
| QRVRNRM | 0.03 ± 0.33 |
| YLRLFFVRCGHPDSETSYRS | 0.418 ± 0.33 |
| LVLVRFITPVDLAVMNGRLW | -0.927 ± 0.34 |
| CSWLSFVEEVGLGSERGVRG | -0.629 ± 1 |
| RSSILMVVVANHSIIVTRGV | 3.04 ± 0.13 |
| VRLMSTAMLRRLELVLYST | 0.539 ± 0.32 |
| GEERFYSLKYCCKGRLWRPG | 0.179 ± 0.43 |
| VSFRMVLNYLQVGYSWGHWR | 0.395 ± 0.44 |
| SCWVDSDHLNCFIYFTFVNT | -1.27 ± 2.7 |
| VWRLSI | -0.557 ± 0.41 |
| FSCCILPCSLSHSMVFLGSG | 8.064 ± 0.08 |
| EVGHFRSDVDLFWV | -1.04 ± 0.44 |
| IPGTPMT | inactive |
| YGTGMCHELCIDVTSWVMWM | -1.57 ± 0.79 |
| LTSRIEWNGHAQSLWWLLSK | 0.711 ± 0.21 |
| KLIYLMGPIPWVLRSCWQVF | 0.208 ± 0.37 |
| SYNFLRPYLLFSHPFSYDSS | 0.21 ± 0.6 |
| TFGDWHKLRWRRSQPKCWSG | 0.299 ± 0.36 |
| DKVMGRTQLTTCQYATGRCR | 0.406 ± 0.3 |
| DIKYECIS | 0.204 ± 0.34 |
| ARMSNMNPLFWLP | -0.04 ± 0.35 |
